Test results reported in patent US7514233.

Molecular target: Recombinant HIV-1 integrase from pRP1012 with the His6 tag removed by thrombin (HIV-1) (UniProt P04585)
Experiment: cell-based or functional assay

## His6-tagged Inip76/LEDGF expressed in E. coli from pCP6H75 (pRSETB) (from UniProt O75475 2-530)
  IN protein remaining soluble after 45 minutes incubation at 4° C. and centrifugation at 20000 g: 50%
